Results as given in PMC7265457, “A disulfide constrains the ToxR periplasmic domain structure, altering its interactions with ToxS and bile-salts” (Scientific Reports, 2020).

Target: T1, V. cholerae ToxS periplasmic domain tagged with an N-terminal chitin binding domain (V. cholerae, UniProt P24003 26-173)
T1 construct: also called CBD-ToxSp
T1 sequence: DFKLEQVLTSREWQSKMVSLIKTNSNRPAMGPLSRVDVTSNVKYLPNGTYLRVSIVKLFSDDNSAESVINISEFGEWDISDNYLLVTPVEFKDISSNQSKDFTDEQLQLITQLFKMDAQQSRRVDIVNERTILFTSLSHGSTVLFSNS
Assay: pull-down
Conditions: both partners purified

B1: V. cholerae non-disulfide bonded ToxR periplasmic domain (domain or fragment)
chain: TNPSQTSFKPLTVVDGVAVNMPNNHPDLSNWLPSIELCVKKYNEKHTGGLKPIEVIATGGQNNQLTLNYIHSPEVSGENITLRIVANPNDAIKVCE
notes: also called Vc-ToxRp
With B1 the “amount pulled down (buffer) relative to Vc-dbToxRp with CDC” value was 0.22 relative level.
